± gives the standard deviation of the averaged measurements.
Tested on: ATP
Experiment: switch fluorescence ratio, 500 uM ATP over buffer (Cy3 cluster intensity, sum of 5 cycles each) (fold (ratio)); higher = stronger signal-on switching upon ATP binding; sequences stand for … in TCGTCGGCAGCGTCAGATGTGTATAAGAGACAGTTTTTTTTTTTTTTTTTTTTTTTTT…TC
Settings: aptamer strand: ATP DNA aptamer (quencher-CACCTGGGGGAGTATTGCGGAGGAAGG + anchor), 100 nM annealed; ATP concentration: 500 uM
In short: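 Exposure to 500 uM ATP lasted 15 min at 22 °C before imaging, and a selection-buffer image was taken beforehand, for Cy3-labelled switching-strand clusters on a modified Illumina MiSeq flow-cell annealed to 100 nM quencher-labelled ATP aptamer. Five buffer/ATP cycles were run with NaOH stripping and re-annealing between them. The fluorescence ratio per cluster is summed target-cycle over summed buffer-cycle Cy3 intensity, averaged per switch-domain sequence. Clusters outside 100-1000 RFU were excluded.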

Sequence | switch fluorescence ratio
TGCAAATTGC | 0.997 ± 0.019
TTATGTTTTT | 1.01 ± 0.025
GTGTCAGCGG | 0.9762 ± 0.0088
GGAGTGAGGT | 0.999 ± 0.03
GCTCTATGAC | 1.08 ± 0.044
CGGTTCGGTG | 0.981 ± 0.014
TGATGAGATC | 0.9734 ± 0.0082
AATTGTTTGT | 0.998 ± 0.016
ACAGGAAACG | 1.042 ± 0.0014
GGACAGGGGT | 1.03 ± 0.073
TTTCTCATTT | 0.972 ± 0.021
AGGGGATAGC | 1.01 ± 0.017
TGAGGAGGG | 0.97516 ± 0.00046
CCAAAGGGGT | 1.06 ± 0.046
AATTGGAAAA | 0.987 ± 0.019
CGGAAGTTAT | 1.01 ± 0.04
TTTCTCTTAG | 0.9889 ± 0.0072
TAAAGAGGGG | 1 ± 0.021
GGGGGCTGGT | 1 ± 0.0022
TGCTGCAGTG | 0.966 ± 0.024
TAAGTTTTAG | 1.07 ± 0.081
TTTCGGGAAT | 1.08 ± 0.11
TCGCAGTGGG | 1.12 ± 0.034
TTACTATCTG | 1.01 ± 0.019
TGTAGCCAGT | 1.05 ± 0.07

Sequence | switch fluorescence ratio
CGAGTACTGT | 0.994 ± 0.025
CATAGAGTTG | 1.03 ± 0.084
CGTCCTTGTT | 0.991 ± 0.029
GGGGTGTGAC | 1.022 ± 0.0026
TTTGTTAGAC | 1.03 ± 0.022
TGAGGCCGGG | 1 ± 0.021
GTTGGCTTTC | 1.019 ± 0.0077
ACGGCCAAGG | 1.05 ± 0.031
CACGGATTCA | 0.988 ± 0.043
TGCGTTGGGG | 0.981 ± 0.019
CAACCCGGTA | 1.51 ± 0.7
CGTGATTCAC | 1.007 ± 0.0075
TAACGCATG | 1.13 ± 0.082
TTTGCCTTTG | 0.9991 ± 0.0076
GGGGTAATAT | 1.06 ± 0.053
TTTCTGGGTG | 1.13 ± 0.038
TCCGTGCAAG | 3.03 ± 0.48
ATGTCCGAAT | 1.02 ± 0.012
CGAGTAGAGG | 1.02 ± 0.026
TAGGGGGTT | 1.01 ± 0.026
CGCGCCTATC | 1.11 ± 0.02
GGACTTTAAT | 1 ± 0.017
TTGGGGATGA | 1.01 ± 0.016
TCATATTTGT | 0.981 ± 0.019
TTTTTTGTTC | 1.14 ± 0.3

Sequence | switch fluorescence ratio
TGGAGCTGCA | 1.04 ± 0.09
ATCGACGGG | 1.008 ± 0.0058
TGCTGCGCTT | 1.14 ± 0.081
GGGTAAGGCA | 0.986 ± 0.071
CTATTTACGA | 1.05 ± 0.015
GCGGGGGAG | 1.01 ± 0.059
TTAAAAAGGG | 0.995 ± 0.029
CCATGTCGTA | 0.995 ± 0.016
GCTAAATTCC | 1.11 ± 0.027
CGGGCCTTGA | 0.981 ± 0.016
TTTGGTTCAG | 0.994 ± 0.018
TGGGGGTGCT | 1 ± 0.013
ATGTCATAAA | 1.0269 ± 0.0006
TCGGAACTTG | 1.01 ± 0.07
GGATAGTCAG | 0.984 ± 0.016
GCGTTTGCAT | 1.03 ± 0.034
TATGATTTAA | 1.01 ± 0.016
GAATGTTCGG | 0.999 ± 0.051
GTGTTCTGGA | 1.002 ± 0.006
GAAAAAAGTA | 1.01 ± 0.031
AAGGTGGGGG | 0.991 ± 0.033
AATTCGGGGG | 1.04 ± 0.054
GACGATCCTG | 1.08 ± 0.043
AGGGTGTGGT | 0.9841 ± 0.0039
ACAATGTGGT | 0.951 ± 0.018

Sequence | switch fluorescence ratio
CGGTCTTCAT | 0.9903 ± 0.00043
GACGTTATTG | 1.03 ± 0.013
TAAGAGTACT | 1.008 ± 0.0019
GAAGGTTTGG | 0.981 ± 0.03
GAGAAAATTT | 0.989 ± 0.043
GGGATAATGG | 0.968 ± 0.032
GCACTTGGTC | 0.989 ± 0.011
TGGAGGGCTT | 1.04 ± 0.021
TTTTCTACCC | 1.03 ± 0.059
CGTGCCGATC | 1.01 ± 0.013
AGTTCAAACC | 1.04 ± 0.062
CCTGTTGGGA | 1.01 ± 0.037
TTAGGCTAAA | 1.002 ± 0.0074
AAATGGTAAT | 0.978 ± 0.036
GAATTTGAGT | 0.9741 ± 0.0089
TTTGGGTTGG | 1.03 ± 0.13
ATTGTCTTCG | 0.987 ± 0.041
TTTTTTCCCA | 1.01 ± 0.011
ATGGGCTGAG | 0.992 ± 0.017
TATAACGGAT | 1.01 ± 0.025
AATTAGAGTA | 0.994 ± 0.068
TTAGTCGGGA | 1.023 ± 0.0028
GGGTCTGCAC | 0.997 ± 0.013
ACGACGGGGG | 1.2 ± 0.23
TAAGATGTTG | 1.01 ± 0.019

Sequence | switch fluorescence ratio
ATCGCGGGCC | 1.03 ± 0.036
GTTGGGGAAG | 0.972 ± 0.034
GAACATCGGC | 1.036 ± 0.0022
AGATAAAGGT | 0.995 ± 0.057
TAAGCAGGTT | 0.995 ± 0.017
TTTATAATAG | 0.991 ± 0.025
AATAGAGTGG | 0.99 ± 0.024
TCGGCCGGGA | 1.05 ± 0.011
AATGCGTGTG | 1.12 ± 0.15
GCGGTGTTTT | 1.03 ± 0.05
TAAAGGATG | 0.968 ± 0.019
TGATACTTAG | 1.061 ± 0.0084
AGTATGGTTG | 1 ± 0.02
TGTAGTCCTT | 0.949 ± 0.015
GGTTACGAAG | 1.01 ± 0.044
GTTGGCCTCT | 1.02 ± 0.022
TCTATAATCG | 0.977 ± 0.034
AGGTGGCCGT | 0.963 ± 0.02
TAATTTAATA | 1.02 ± 0.011
TTTTGTGGAA | 0.998 ± 0.027
GACGGGTGAG | 0.9917 ± 0.0087
AAGGGGGGAA | 1.06 ± 0.21
CGCTTTGATA | 0.991 ± 0.03
TTGACGGGAG | 0.997 ± 0.027
TCTTATGTTA | 0.989 ± 0.021

Sequence | switch fluorescence ratio
TTAGAGGCCC | 1.01 ± 0.032
TATATTGCTA | 1.01 ± 0.026
CTGGCTACGG | 1.01 ± 0.032
GTTCGTTTTG | 0.975 ± 0.035
AGGGGGTCTA | 1.013 ± 0.0014
AAAAGGGAGC | 1.14 ± 0.14
AGCCACTGGA | 1.06 ± 0.059
AGGAGGGCAG | 1.013 ± 0.0059
TAGGGGGGAT | 0.992 ± 0.035
TAGGGGGCCA | 1.014 ± 0.004
CGGGGGTACA | 1.02 ± 0.019
TGATATTGGT | 1.01 ± 0.021
CCACTGTTGG | 0.992 ± 0.029
TGGGCCAGA | 1.01 ± 0.024
AAGAGTTCTT | 1.01 ± 0.03
CCGCATGGGG | 1.49 ± 0.057
ACGAGGTGGG | 0.987 ± 0.017
GCGGGGTTTC | 1.03 ± 0.059
TACGGTAAAA | 0.986 ± 0.044
TTCATTTTTT | 1.02 ± 0.041
CAAAGCAAAA | 2.36 ± 2
AAAGGATGAT | 0.9978 ± 0.0031
GGTACGGGGA | 1.03 ± 0.051
TGGGAGTCTG | 0.9898 ± 0.0047
GCGCTTTTTT | 0.9898 ± 0.00075

Sequence | switch fluorescence ratio
ATCTTGGACG | 1.05 ± 0.027
CTCATCTAAT | 0.9821 ± 0.0081
TGTAGAGGGA | 1.005 ± 0.0046
GGGGTTCGGC | 1.058 ± 0.0023
GTTTGGCGT | 1.03 ± 0.045
GTTGCATATT | 0.978 ± 0.023
GAGGCGAGTC | 1.06 ± 0.029
TGGGCGAATG | 0.9946 ± 0.0058
TGGGGGACTC | 0.988 ± 0.023
AGTTCCGTTT | 0.994 ± 0.022
GTGAGCCACG | 0.9932 ± 0.0014
TATATTTTGG | 1.02 ± 0.074
AGTTTTGGTA | 1.02 ± 0.064
GAGCGTGGGA | 1.11 ± 0.081
TTTGAAGTTT | 1 ± 0.018
GGTTTACCGG | 0.987 ± 0.039
GTTTCCAACT | 1.01 ± 0.021
GATTCTTGTT | 1.02 ± 0.046
GAGGGAAGTA | 1.06 ± 0.17
TTTGGCTTAC | 1.55 ± 0.72
GATGTTAATA | 0.985 ± 0.085
TGTTTTTATC | 0.992 ± 0.013
CAGTAGAGG | 0.979 ± 0.019
AGGGGGCCGT | 0.982 ± 0.042
GGGCCTCGGT | 0.9914 ± 0.0087

Sequence | switch fluorescence ratio
TGACGTGCGT | 1.02 ± 0.012
TTTGTCATCG | 1.03 ± 0.018
TTATAAAAAG | 0.974 ± 0.042
GCTCTGGGGT | 1.02 ± 0.033
AGGCCCGGGC | 0.958 ± 0.023
AGAATCTTGC | 1.167 ± 0.0026
ACGGCTACGG | 1.02 ± 0.018
GCACTTGGGG | 0.998 ± 0.057
AACAGGGGGA | 1.09 ± 0.14
GGCAGCTGGG | 0.946 ± 0.023
TCATCGGGGC | 1.03 ± 0.071
ATGGTACACC | 1.04 ± 0.013
CACCGGGGTG | 0.995 ± 0.13
GAAGATTTGG | 0.981 ± 0.04
AAGCGCTGTT | 1.003 ± 0.0073
GCTTTATTTT | 1.09 ± 0.19
CAAATGGGTC | 1.06 ± 0.046
ATGGGGTGTA | 1 ± 0.03
GACGTTTTAG | 0.993 ± 0.052
TTTGGATGGA | 1.02 ± 0.023
GATGCGGTG | 1 ± 0.012
AGCTAATTTT | 1.02 ± 0.013
CGTTCTTGTT | 0.976 ± 0.032
GTGGAGGGGG | 0.9841 ± 0.0047
GGGGGTATTG | 0.99 ± 0.041
